# B1: Cellular tumor antigen p53 (Mus musculus), P02340 (parent)
# chain: MTAMEESQSDISLELPLSQETFSGLWKLLPPEDILPSPHCMDDLLLPQDVEEFFEGPSEALRVSGAPAAQDPVTETPGPVAPAPATPWPLSSFVPSQKTYQGNYGFHLGFLQSGTAKSVMCTYSPPLNKLFCQLAKTCPVQLWVSATPPAGSRVRAMAIYKKSQHMTEVVRRCPHHERCSDGDGLAPPQHLIRVEGNLYPEYLEDRQTFRHSVVVPYEPPEAGSEYTTIHYKYMCNSSCMGGMNRRPILTIITLEDSSGNLLGRDSFEVRVCACPGRDRRTEEENFRKKEVLCPELPPGSAKRALPTCTSASPPQKKKPLDGEYFTLKIRGRKRFEMFRELNEALELKDAHATEESGDSRAHSSYLKTKKGQSTSRHKKTMVKKVGPDSD
# Variants of: B1
# Conditions: with ep300_human EP300, Q09472
# ep300_human EP300, Q09472, sequence (Q09472 whole entry): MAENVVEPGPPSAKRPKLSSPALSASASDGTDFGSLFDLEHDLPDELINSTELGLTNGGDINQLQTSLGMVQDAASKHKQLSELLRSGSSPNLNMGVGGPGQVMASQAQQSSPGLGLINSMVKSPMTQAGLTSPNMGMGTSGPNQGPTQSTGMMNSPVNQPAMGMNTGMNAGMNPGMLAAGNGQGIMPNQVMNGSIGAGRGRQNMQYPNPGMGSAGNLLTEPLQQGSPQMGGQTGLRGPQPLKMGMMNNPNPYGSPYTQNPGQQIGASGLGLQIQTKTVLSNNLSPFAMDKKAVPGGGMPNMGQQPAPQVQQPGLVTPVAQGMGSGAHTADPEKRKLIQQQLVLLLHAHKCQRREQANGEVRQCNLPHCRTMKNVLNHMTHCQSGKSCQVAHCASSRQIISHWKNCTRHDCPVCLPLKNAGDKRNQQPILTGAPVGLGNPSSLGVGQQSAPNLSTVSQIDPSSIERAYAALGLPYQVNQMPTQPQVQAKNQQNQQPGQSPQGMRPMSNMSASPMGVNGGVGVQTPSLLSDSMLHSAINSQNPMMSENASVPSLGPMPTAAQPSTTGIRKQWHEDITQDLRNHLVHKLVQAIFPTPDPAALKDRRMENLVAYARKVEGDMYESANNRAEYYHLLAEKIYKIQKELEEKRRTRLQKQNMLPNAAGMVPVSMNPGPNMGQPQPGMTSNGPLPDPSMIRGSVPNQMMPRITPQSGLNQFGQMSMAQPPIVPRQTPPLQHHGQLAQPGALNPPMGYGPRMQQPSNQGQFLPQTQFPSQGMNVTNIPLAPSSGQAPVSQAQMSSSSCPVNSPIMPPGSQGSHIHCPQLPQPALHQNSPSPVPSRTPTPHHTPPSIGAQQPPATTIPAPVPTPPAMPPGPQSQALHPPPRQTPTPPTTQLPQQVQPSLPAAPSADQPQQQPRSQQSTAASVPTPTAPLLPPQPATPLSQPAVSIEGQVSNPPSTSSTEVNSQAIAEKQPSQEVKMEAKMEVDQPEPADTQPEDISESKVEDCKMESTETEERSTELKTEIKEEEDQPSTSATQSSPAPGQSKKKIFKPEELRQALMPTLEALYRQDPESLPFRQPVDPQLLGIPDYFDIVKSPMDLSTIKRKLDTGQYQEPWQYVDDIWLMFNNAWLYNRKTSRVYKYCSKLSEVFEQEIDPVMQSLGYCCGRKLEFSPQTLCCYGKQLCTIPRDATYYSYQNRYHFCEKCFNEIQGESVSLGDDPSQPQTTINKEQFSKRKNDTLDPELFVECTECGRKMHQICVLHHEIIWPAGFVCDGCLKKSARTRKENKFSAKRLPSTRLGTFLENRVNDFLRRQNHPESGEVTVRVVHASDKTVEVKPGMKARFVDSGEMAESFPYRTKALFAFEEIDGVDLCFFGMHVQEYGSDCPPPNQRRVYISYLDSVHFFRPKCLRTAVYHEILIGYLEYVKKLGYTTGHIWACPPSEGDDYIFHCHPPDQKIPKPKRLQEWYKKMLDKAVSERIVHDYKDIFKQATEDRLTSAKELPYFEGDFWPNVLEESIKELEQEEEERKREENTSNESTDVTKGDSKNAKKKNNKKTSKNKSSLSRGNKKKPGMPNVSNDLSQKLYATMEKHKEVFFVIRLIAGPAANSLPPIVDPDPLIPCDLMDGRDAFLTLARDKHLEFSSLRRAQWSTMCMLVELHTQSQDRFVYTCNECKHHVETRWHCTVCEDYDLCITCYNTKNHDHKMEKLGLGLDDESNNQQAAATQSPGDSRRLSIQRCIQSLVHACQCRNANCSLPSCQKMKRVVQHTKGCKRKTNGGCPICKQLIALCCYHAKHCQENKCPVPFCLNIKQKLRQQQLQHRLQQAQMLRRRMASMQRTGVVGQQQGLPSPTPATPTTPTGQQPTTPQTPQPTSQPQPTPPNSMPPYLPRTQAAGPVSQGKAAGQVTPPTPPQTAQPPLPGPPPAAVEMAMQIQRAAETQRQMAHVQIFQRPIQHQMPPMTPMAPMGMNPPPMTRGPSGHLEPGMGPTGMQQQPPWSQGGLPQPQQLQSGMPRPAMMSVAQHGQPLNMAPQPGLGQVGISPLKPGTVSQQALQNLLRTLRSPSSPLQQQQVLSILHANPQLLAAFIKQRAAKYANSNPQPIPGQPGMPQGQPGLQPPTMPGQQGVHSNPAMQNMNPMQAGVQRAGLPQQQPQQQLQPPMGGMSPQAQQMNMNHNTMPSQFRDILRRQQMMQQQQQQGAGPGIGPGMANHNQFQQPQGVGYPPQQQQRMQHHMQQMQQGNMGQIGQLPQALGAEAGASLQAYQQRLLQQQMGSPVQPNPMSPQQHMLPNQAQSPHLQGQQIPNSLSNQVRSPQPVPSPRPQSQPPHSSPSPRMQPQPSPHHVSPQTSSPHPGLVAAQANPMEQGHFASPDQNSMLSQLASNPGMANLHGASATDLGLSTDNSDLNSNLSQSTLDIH
row,effect of a mutation on the interaction,Variant
1,decreasing interaction,L25Q;W26S
